Test results published in patent US20260176344A1 (SUZHOU ALPHAMAB, published 2026).

T1: GIPR-ECD-laFc (an alpaca Fc-fused human GIPR extracellular region fragment) (human, UniProt P48546 22-138)
T1 construct: extracellular domain; not shown: alpaca Fc
T1 sequence (looked up): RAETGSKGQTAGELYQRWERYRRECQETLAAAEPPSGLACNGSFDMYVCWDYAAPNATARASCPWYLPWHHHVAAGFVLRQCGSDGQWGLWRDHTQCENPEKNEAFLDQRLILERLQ

T2: human GIPR expressed on HEK293T cells (human, UniProt P48546 22-466)
T2 sequence (looked up): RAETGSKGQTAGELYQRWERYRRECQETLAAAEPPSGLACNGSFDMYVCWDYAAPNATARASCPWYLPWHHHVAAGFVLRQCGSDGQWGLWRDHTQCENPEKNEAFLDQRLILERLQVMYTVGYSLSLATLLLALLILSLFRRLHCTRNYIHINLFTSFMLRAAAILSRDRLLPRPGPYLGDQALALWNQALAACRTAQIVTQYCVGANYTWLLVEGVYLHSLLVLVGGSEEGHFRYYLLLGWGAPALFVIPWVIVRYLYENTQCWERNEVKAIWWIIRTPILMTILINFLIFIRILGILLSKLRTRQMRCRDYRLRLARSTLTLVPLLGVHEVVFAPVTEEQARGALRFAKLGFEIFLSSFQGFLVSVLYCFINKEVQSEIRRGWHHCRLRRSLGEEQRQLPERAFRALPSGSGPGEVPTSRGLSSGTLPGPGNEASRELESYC

T3: GIPR-ECD-chis (a his tag-fused human GIPR extracellular region fragment) (human, UniProt P48546 22-138, limits assumed)
T3 construct: extracellular domain; not shown: his tag
T3 sequence (looked up): T1 sequence (looked up)

B1: iGI-1198 (VHH)
VHH: QVQLQESGGGLVQPGGSLRLSCVASGSGFSIVAMGWYRQTPGKQRELVAAITSGGNTNYADSVKGRFTISRDNAKNTIYLQMNSLKPEDTAVYYCNADPGVVAGPYAGMDFWGKGTQVTVSS
notes: Tested as supernatant of a helper-phage-rescued clone (pComb3XSS), detected by anti-HA tag
B2: iGI-44 (VHH)
VHH: QVQLVESGGGLVQAGGSLKLSCAASGRTFSSKAMGWFRQAPGKEREFVAAINWSGDRTYHVNSIKGRFTISRDNAKNTVYLQMNSLKPEDTAVYYCTADRRDRATIPFQWHYWGQGTQVTVSS
notes: as for B1
B3: Maridebart (antibody, V domains shown)
VH: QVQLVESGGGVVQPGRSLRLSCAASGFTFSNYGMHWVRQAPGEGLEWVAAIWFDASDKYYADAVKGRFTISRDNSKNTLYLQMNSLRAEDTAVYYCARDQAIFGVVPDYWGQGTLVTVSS
VL: EIVMTQSPATLSVSPGERATLSCRASQSVSSNLAWYQQKPGQAPRLLIYGAATRATGIPARVSGSGSGTEFTLTISSLQSEDFAVYYCQQYNNWPLTFGGGTKVEIK
B4: iGI-9 (VHH)
VHH: QVQLVESGGGLVQPGGSLRLSCETSKILFSSAYTMGWYRQAPGKQRELVATITTDYITNYVDSVKGRFTISRDNAKNTVYLQMNTLKLEDTAVYYCNARWGRDYWGQGTQVTVSS
notes: as for B1
B5: iGI-72 (VHH)
VHH: QVQLVESGGGLVQPGGSLRLSCAASRYTLDYYAIGWFRQAPGKEREGVSCINSKDGSTYYADSVKGRFTISKDNAKNTVYLQMNSLKPEDTAVYYCAAGYDPWSGIPPVQAMCVMGYDYWGQGTQVTVSS
notes: as for B1
B6: iGI-51 (VHH)
VHH: QVQLVESGGKLVQAGGSLRLDCVASGRTFSYYAIGWYRQAPGKEREFVAAIRASGGSTYYADSVKGRFTASRDNAKNTGYLQMNSLKPEDTAVYFCYAATIVPITPSTHGYWGQGTQVTVSS
notes: as for B1
B7: iGI-27 (VHH)
VHH: QVQLVESGGALVQTGGSLRLFCAASGDTICITNMNWYRQAPGKGREFVAAITRSGRTLYADYVKGRFTISRDNARNTMSLQMNSMTSEDTAVYYCNADQNQTICAAEPSAWGRGTQVTVSS
notes: as for B1

Assays:
[1] = target: T1, GIPR-ECD-laFc (an alpaca Fc-fused human …); assay: phage supernatant ELISA, coated antigen, anti-HA HRP, A450-A650
Protocol: (§1) The binding-positive phages obtained after the panning were used to infect blank E. coli cells, which were then plated. Subsequently, colonies were picked, inoculated separately into 2TY-AG (containing 10% glycerol), and left to stand overnight at room temperature. The next day, the cultures were separately inoculated into 200 μL of 2TY-AG, with an inoculation amount of 1%, and incubated at 37° C. at 250 rpm until OD600 reached about 0.5. Helper phage M13KO7 was added for infection (at a multiplicity of infection of 1:20). The cultures were left to stand at 37° C. for 15 min and then incubated at 220 rpm for 45 min. 800 μL of 2TY-AG was added to each well, and the plate was incubated overnight at 30° C. at 220 rpm and centrifuged the next day. The supernatants were collected for ELISA assays. Plates were coated overnight at 4° C. with GIPR-ECD-Chis, GIPR-ECD-laFc, C1, and C2, respectively, and the obtained supernatants were added. The plates were incubated at room temperature for 2 hours. After washing, the secondary antibody Goat anti-HA tag HRP (purchased from Abcam) was added, and the plates were incubated at room temperature for 2 hours. After washing, TMB chromogenic solution was added, and absorbance values at wavelengths of 450 nm and 650 nm were read. The final absorbance values were obtained by subtracting the absorbance values at the wavelength of 650 nm from the absorbance values at the wavelength of 450 nm.

[2] = target: T4, Control-2 (C2), a laFc-containing fusion protein; assay: phage supernatant ELISA, coated control protein, anti-HA HRP, A450-A650
T4 construct: Negative panning and ELISA control
Protocol: as §1

[3] = target: T5, Control-1 (C1), a muFc-containing fusion protein; assay: as above
T5 construct: Negative panning and ELISA control
Protocol: as §1

[4] = target: T2, human GIPR expressed on HEK293T cells; assay: cell-based or functional assay
[5] = target: T2, human GIPR expressed on HEK293T cells; assay: cell binding on 293T-GIPR cells, anti-human SULFO-TAG secondary antibody, MSD read-out plotted as MFI
Protocol: The anti-human secondary antibody SULFO-TAG (MSD, Cat. No. R32AJ-1) was added, followed by incubation. The mean fluorescence intensity (MFI) was measured using MSD.

[6] = target: T3, GIPR-ECD-chis (a his tag-fused human …); assay: BLI, antibody on AHC sensor, GIPR-ECD-chis in solution

Row | Binder | OD value [1] | OD value [2] | OD value [3] | EC50 of the inhibition rate (%) of GIP-induced cAMP expression in 293T-GIPR cells [4] | EC50 [5] | Kd [6] | koff [6] | kon [6]
1 | B1 | 1.95 OD | 0.027 OD |  |  |  |  |  | 
2 | B2 | 2.31 OD | 0.023 OD | 0.018 OD |  |  |  |  | 
3 | B3 |  |  |  | 0.351 µg/mL | 1.18 nM | 16.3 nM | 0.00222 s⁻¹ | 136000 M⁻¹ s⁻¹
4 | B4 | 2.21 OD | 0.028 OD | 0.018 OD |  |  |  |  | 
5 | B5 | 2.2 OD | 0.077 OD | 0.019 OD |  |  |  |  | 
6 | B6 | 2.17 OD | 0.027 OD | 0.042 OD |  |  |  |  | 
7 | B7 | 2.23 OD | 0.023 OD | 0.018 OD |  |  |  |  | 
